The term stoichiometry N denotes the number of molecules, sites or subunits per partner or assembly.

A value given as a limit tells only on which side of the number the result lay.

Data set [1] deals with the molecule itself. The data set is described as follows: AUC.
Data set [2] deals with the molecule itself. In words: AUC. This is another data set of the same source.

B1: Sen[K252,255A] (enzyme, UniProt Q5XD01 1-435, looked up)
chain: MSIITDVYAREVLDSRGNPTLEVEVYTESGAFGRGMVPSGASTGEHEAVELRDGDKSRYLGLGTQKAVDNVNNIIAKAIIGYDVRDQQAIDRAMIALDGTPNKGKLGANAILGVSIAVARAAADYLEVPLYTYLGGFNTKVLPTPMMNIINGGSHSDAPIAFQEFMIMPVGAPTFKEGLRWGAEVFHALKKILKERGLVTAVGDEGGFAPKFEGTEDGVETILKAIEAAGYEAGENGIMIGFDCASSEFYDAERAVYDYTKFEGEGAAVRTSAEQVDYLEELVNKYPIITIEDGMDENDWDGWKVLTERLGKRVQLVGDDFFVTNTEYLARGIKENAANSILIKVNQIGTLTETFEAIEMAKEAGYTAVVSHRSGETEDSTIADIAVATNAGQIKTGSLSRTDRIAKYNQLLRIEDQLGEVAQYKGIKSFYNLKK
As to B1, in data set [1], the “stoichiometry N” value was determined as 8. Moreover, the percent as octamer in data set [2] was ≥ 95%.

B2: Sen[K252,255,434,435A] (enzyme, UniProt Q5XD01 1-435, looked up)
chain: MSIITDVYAREVLDSRGNPTLEVEVYTESGAFGRGMVPSGASTGEHEAVELRDGDKSRYLGLGTQKAVDNVNNIIAKAIIGYDVRDQQAIDRAMIALDGTPNKGKLGANAILGVSIAVARAAADYLEVPLYTYLGGFNTKVLPTPMMNIINGGSHSDAPIAFQEFMIMPVGAPTFKEGLRWGAEVFHALKKILKERGLVTAVGDEGGFAPKFEGTEDGVETILKAIEAAGYEAGENGIMIGFDCASSEFYDAERAVYDYTKFEGEGAAVRTSAEQVDYLEELVNKYPIITIEDGMDENDWDGWKVLTERLGKRVQLVGDDFFVTNTEYLARGIKENAANSILIKVNQIGTLTETFEAIEMAKEAGYTAVVSHRSGETEDSTIADIAVATNAGQIKTGSLSRTDRIAKYNQLLRIEDQLGEVAQYKGIKSFYNLAA
With B2, the “stoichiometry N” value in data set [1] came out at 8. Moreover, the percent as octamer in data set [2] is ≥ 95%.

B3: Sen[K434,435A] (enzyme, UniProt Q5XD01 1-435, looked up)
chain: MSIITDVYAREVLDSRGNPTLEVEVYTESGAFGRGMVPSGASTGEHEAVELRDGDKSRYLGLGTQKAVDNVNNIIAKAIIGYDVRDQQAIDRAMIALDGTPNKGKLGANAILGVSIAVARAAADYLEVPLYTYLGGFNTKVLPTPMMNIINGGSHSDAPIAFQEFMIMPVGAPTFKEGLRWGAEVFHALKKILKERGLVTAVGDEGGFAPKFEGTEDGVETILKAIEAAGYEAGENGIMIGFDCASSEFYDKERKVYDYTKFEGEGAAVRTSAEQVDYLEELVNKYPIITIEDGMDENDWDGWKVLTERLGKRVQLVGDDFFVTNTEYLARGIKENAANSILIKVNQIGTLTETFEAIEMAKEAGYTAVVSHRSGETEDSTIADIAVATNAGQIKTGSLSRTDRIAKYNQLLRIEDQLGEVAQYKGIKSFYNLAA
With B3, the “stoichiometry N” value in data set [1] was 8. In addition, the percent as octamer in data set [2] was ≥ 95%.

The values above are taken from article doi:10.1101/2022.12.06.518574 (bioRxiv, 2022).
